# Test results: publication PMC4514675, “Novel Apo E-Derived ABCA1 Agonist Peptide (CS-6253) Promotes Reverse Cholesterol Transport and Induces Formation of preβ-1 HDL In Vitro” (PLoS ONE, 2015)
# Where “and” joins values, the source holds several entries; their conditions need not be identical. Identical values can stand only once.
# Experiments:
# SR-BI = assay: SR-BI-mediated cholesterol uptake in Fu5AH hepatoma cells; format: cell-based, rat; conditions: 2 h pretreatment of Fu5AH cells; uptake from CS-6253 or apo A-I nHDL
# Protocol: J774 cells were labeled for 24h with ^3[H]-cholesterol (Perkin Elmer, Norwalk, Connecticut) in medium containing 1% FBS. Unlabeled rat Fu5AH hepatoma cells that express high levels of SR-BI, were prepared as described previously. Fu5AH were first seeded on 24-well plate at a density of 2x10^5 cells/well in DMEM plus 10% FBS. SR-BI mediated cholesterol uptake is determined as previously reported. The nHDL particles were generated in media cell culture after 6h incubation of cAMP stimulated J774 cells with increased molar concentrations relative to native apo A-I of lipid free CS-6253 (0, 0.018, 0.071, 0.179, 0.357, 0.536, 0.714, and 1.071 μM). […] The total of ^3H-label present in the lipid extract from cells (% cpm) was quantified by liquid scintillation, and plotted as cell-associated radioactivity as described by Yancey et al.. The contribution of SR-BI to the influx of HDL cholesterol (HDL-C) was assessed by a 2h pretreatment of Fu5AH cells with blocker of lipid transport-1 (BLT-1) to inhibit any transport of cholesterol from HDL to the cells via SR-BI [31]. […]
# Fig 10 Uptake of cholesterol to hepatic cells expressing SR-BI from plasma containing HDL-CS-6253 or HDL-apo A-I. A. Fu5AH liver hepatoma cells expression of SR-BI transporter ability. […] Protein concentration was determined by standard assay (Bio-Rad). […]
# LCAT = LCAT activity (fractional esterification rate) in human plasma; format: biochemical; conditions: 2 mM DTNB, 1 h, 37°C
# Protocol: Supplementary file pone.0131997.s011.tif: S10 Fig Dynamics of esterification of nascent […]-6253 particles were labelled with cell derived ^3[H]cholesterol and incubated with a normolipidemic plasma at a ratio of (1μg peptide: 10μg plasma apo A-I). LCAT activity was determined after incubation for 1h at 37°C in the presence or absence of 2 mM DTNB. After lipid extraction, ^3[H]cholesterol (unesterified) and ^3[H]CE from plasma were separated by TLC and assayed for radioactivity as described in the online-only Supplementary appendix, S1 Appendix. LCAT activity was measured as CE divided by cholesterol/h. Results are mean (±SD) of triplicate experiments. *P<0.05. (TIF) Click here for additional data file. The fractional cholesterol esterification rate (FER) of LCAT activity was assayed with standard methodology (1,2). […] Cholesterol labeled nHDL particles, Lp-CS-6253 or […] plasma apo A-I), are incubated in total plasma pooled from healthy control subjects for 1h at 37 °C (3). This ratio is selected based on the assumption that the in vivo nascent HDL pool represented ∼10% of total plasma apoA-I mass (4). […] Cellular lipids were extracted and ^3[H]cholesterol and ^3[H]cholesteryl esters (CE) were separated by TLC. The lipids ^3[H]free cholesterol and ^3[H]CE were located by exposure to iodine vapor, and were scraped into liquid scintillating vials and assayed for radioactivity. […]
# [1] = target: ABCA1 (human, expressed in BHK cells) (human) (UniProt O95477); assay: cross-linking; intact mifepristone-stimulated BHK-ABCA1 cells in the presence of apo A-I or CS-6253 (0.96 μM), cross-linked or not with 500 μM DSP; lysis with 0.5% n-dodecylmaltoside; SDS-PAGE (4–22.5%), anti-ABCA1 blot; no DTT
# [2] = system: HDL subpopulations in human plasma; assay: HDL subpopulation remodelling (preβ-1 HDL formation) in human plasma, 2D-PAGGE; conditions: 10 μg lipid free apoA-I: 1 μg plasma apoA-I, 37°C
# Protocol: Apo A-I and CS-6253-containing particles were separated according to charge (agarose, horizontal axis) and size (polyacrylamide gradient, 3% to 20% gel, vertical axis) as previously described. Apo A-I-containing particles were detected by incubating the membranes with immunopurified polyclonal anti-apo A-I antibody (Biodesign). The nHDL-CS-6253 containing particles were detected with immunopurified polyclonal anti-CS-6253 antibody (Biosynthesis Inc., Lewisville, TX). The anti-CS-6253 is a purified rabbit IgG polyclonal antibody specifically produced by Biosynthesis Inc. It is. Cross reactivity of this antibody was verified by Nondenaturing gradient gel electrophoresis (ND-PAGGE) 5% to 35% [24]. The anti-CS-6253 antibody recognizes only CS-6253 peptide in plasma; neither apo A-I nor apo E were detected by this antibody after separation by gradient gel electrophoresis respectively (Fig 1A, 1B and 1C). […]
# Fig 8 Time dependent effects of incubation of lipid free CS-6253 with human plasma, on HDL subparticles. […] HDL subpopulations were detected by an anti-apo A-I antibody. […] HDL subfractions were detected by an antibody against CS-6253. […]
# Fig 9 Time dependent effects of incubation of lipid free CS-6253 with human plasma, on HDL subparticles. […] Samples were separated by 2D-PAGGE, and ^125I-apoA-I was detected by autoradiography. […]
# ABCA1 = ABCA1 (Homo sapiens, UniProt O95477); assay: ABCA1-mediated cholesterol efflux from BHK-ABCA1 cells, acceptor in media; format: cell-based; set-up: expressed in transfected cells; host or cells: BHK cells, stably transfected, induced with 10 nM mifepristone (gift of J. F. Oram); conditions: BHK-ABCA1 induced with mifepristone, 4 h, 37°C, mean ± SD
# Chain of ABCA1 (O95477 whole entry): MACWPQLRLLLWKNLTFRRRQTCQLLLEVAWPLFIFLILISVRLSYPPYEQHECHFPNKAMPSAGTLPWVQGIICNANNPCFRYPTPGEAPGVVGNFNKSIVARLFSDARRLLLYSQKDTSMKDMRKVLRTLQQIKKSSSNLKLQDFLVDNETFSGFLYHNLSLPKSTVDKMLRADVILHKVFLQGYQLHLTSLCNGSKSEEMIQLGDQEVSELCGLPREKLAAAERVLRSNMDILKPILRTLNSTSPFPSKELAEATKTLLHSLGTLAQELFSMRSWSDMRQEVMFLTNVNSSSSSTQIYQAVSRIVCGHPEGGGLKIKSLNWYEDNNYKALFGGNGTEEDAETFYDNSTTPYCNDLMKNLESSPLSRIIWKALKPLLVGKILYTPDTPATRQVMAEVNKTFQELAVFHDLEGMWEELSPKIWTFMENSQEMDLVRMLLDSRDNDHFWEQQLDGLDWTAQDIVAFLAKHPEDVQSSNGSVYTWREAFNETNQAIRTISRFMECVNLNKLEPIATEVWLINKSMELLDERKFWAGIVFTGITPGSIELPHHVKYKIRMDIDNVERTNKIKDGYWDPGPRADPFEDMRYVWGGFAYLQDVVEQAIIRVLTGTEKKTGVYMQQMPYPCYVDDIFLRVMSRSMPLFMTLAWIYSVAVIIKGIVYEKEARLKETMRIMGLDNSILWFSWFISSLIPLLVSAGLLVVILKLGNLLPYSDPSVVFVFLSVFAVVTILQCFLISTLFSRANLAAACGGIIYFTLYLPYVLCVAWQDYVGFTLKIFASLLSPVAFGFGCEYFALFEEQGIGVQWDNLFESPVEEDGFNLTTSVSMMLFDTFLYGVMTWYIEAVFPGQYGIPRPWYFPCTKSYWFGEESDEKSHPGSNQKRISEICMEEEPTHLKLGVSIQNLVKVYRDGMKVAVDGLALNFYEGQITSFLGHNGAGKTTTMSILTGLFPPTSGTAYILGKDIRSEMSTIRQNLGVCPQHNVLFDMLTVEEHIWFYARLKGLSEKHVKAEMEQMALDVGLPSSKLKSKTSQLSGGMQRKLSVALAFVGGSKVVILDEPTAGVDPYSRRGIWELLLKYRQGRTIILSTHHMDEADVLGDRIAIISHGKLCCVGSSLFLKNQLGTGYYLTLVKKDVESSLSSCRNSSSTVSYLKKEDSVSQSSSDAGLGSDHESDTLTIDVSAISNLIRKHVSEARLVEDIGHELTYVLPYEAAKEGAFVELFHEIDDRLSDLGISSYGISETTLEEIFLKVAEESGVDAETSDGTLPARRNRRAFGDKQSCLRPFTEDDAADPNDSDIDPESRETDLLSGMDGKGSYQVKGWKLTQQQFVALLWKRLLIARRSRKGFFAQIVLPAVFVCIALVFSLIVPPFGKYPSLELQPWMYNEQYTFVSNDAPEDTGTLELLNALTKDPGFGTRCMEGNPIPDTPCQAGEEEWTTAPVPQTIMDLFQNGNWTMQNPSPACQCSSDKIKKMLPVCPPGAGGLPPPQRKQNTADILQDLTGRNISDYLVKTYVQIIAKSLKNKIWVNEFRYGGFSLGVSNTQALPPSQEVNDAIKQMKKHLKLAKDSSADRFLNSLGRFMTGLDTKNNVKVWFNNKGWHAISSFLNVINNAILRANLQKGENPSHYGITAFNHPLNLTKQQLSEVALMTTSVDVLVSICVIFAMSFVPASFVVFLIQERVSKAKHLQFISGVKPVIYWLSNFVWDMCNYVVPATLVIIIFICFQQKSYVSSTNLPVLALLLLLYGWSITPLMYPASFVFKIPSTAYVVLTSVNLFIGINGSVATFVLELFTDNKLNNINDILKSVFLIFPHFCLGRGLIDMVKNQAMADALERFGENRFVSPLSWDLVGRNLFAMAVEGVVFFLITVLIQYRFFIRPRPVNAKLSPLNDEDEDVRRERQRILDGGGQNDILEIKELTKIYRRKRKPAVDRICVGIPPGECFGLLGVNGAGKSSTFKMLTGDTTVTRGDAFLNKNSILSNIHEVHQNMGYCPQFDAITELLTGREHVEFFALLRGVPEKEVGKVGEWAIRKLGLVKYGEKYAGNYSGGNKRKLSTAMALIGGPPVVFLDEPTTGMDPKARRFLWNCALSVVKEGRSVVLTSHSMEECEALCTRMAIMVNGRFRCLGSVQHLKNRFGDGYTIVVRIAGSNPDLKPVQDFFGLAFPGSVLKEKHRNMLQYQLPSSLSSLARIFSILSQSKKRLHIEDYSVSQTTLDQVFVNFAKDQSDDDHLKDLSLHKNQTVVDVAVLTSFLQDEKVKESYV
# From the text: BHK cells stably transfected with an ABCA1 or ABCG1 expression vector that is mifepristone inducible and cells transfected with the same vector lacking the ABCA1 cDNA insert (mutant or mock-transfected) were generously provided by the late Dr. John F. Oram from the Department of Medicine, University of Washington, and were characterized and cultured as previously described. […] Mouse-derived peritoneal macrophages J774 were purchased from American Tissue Culture Collection (ATCC TIB-67, Cederlane, Burlington, Canada). For induction of ABCA1, BHK cells were incubated for 18–20 h with 10 nM mifepristone. J774 macrophages were stimulated with 0.3 mM Cpt-cAMP 8-(4-Chlorophenylthio)-cyclic adenosine monophosphate (Sigma). All BHK and J774 macrophages cells were respectively grown and maintained in DMEM and RPMI containing 10% fetal serum until experimental treatment. Studies were carried out on standard 24-well plates (150,000 cells/well) unless stated otherwise
# We investigated cholesterol efflux from BHK cells after adding lipid free CS-6253 to media cell culture or to human EDTA-plasma which had been stored at -80°C. BHK overexpressing human ABCA1 were labeled with 2 μCi/ml ^3H-free cholesterol (Perkin Elmer, Norwalk, Connecticut) for 24 h. Afterward, BHK-ABCA1 were stimulated with 10 nmol/l mifepristone for 18–20 h (13). Cells were incubated with various doses of acceptor in media for 4 h at 37°C. Alternatively, plasma samples were first pre-incubated for 5 min at 37°C in plasma at mole ratios (10:1 or 1:1 relative to plasma apo A-I). To obtain the HDL fraction, apoB lipoproteins were precipitated from plasma by polyethylene glycol (PEG). […]
# Fig 2 Effect of CS-6253 treatment on cholesterol efflux. […] Cholesterol efflux from either ABCA1 cells or control cells to apo A-I (closed circles), and CS-6253 (closed triangles) was determined at the indicated time points. […] ABCA1 was detected from THP-1 foam cells lysis at 4°C with lysis buffer containing 0.5% n-dodecylmaltoside in the presence of a protease inhibitor mixture followed by low speed centrifugation to remove cell debris. Protein concentration was determined by standard assay (Bio-Rad). […] After electrophoresis, ABCA1 was detected by an anti-ABCA1 antibody. […] E. Quantification of FC and CE in foam cells after interaction with CS-6253 and apoA-I. After a period of 4h cholesterol efflux, THP-1 foam cell lipids were extracted with hexane: isopropanol (3v/2v) as under ‘‘Material and Methods’. 3[H]-FC and 3[H]-CE were separated by TLC and located by exposure to iodine vapor, and were scraped off into liquid scintillating vials and assayed for radioactivity. […]
molecule,measurement,setting,value
CCCCCCC1CCCC1=NNC(N)=S (stereo not drawn) [BLT-1],effect on cholesterol uptake (in words),SR-BI,inhibited uptake of cholesterol from CS-6253 or apo A-I nHDL
"O=C(O)c1cc(SSc2ccc([N+](=O)[O-])c(C(=O)O)c2)ccc1[N+](=O)[O-] [DTNB, 5,5′-Dithiobis(2-nitrobenzoic acid)]",inhibition of LCAT,LCAT,98.37 ± 0.08%
"ABCA1 (human, expressed in BHK cells), O95477 1-2261",ratio of ABCA1 dimer: monomer (cells with CS-6253),[1],56.5%
same,ratio of ABCA1 dimer: monomer (cells with apo A-I),[1],69.2%
same,stoichiometry N,[1],2
^125I-lipid free apoA-I: apo A-I iodinated with 125I by Iodo-Gen,"increase in preβ-1 particles, 5 min (125I-apoA-I control)",[2]; 5 min,0.23 fold
same,"increase in preβ-1 particles, 2 h (125I-apoA-I control)",[2]; 2 h,0.4 fold
apolipoprotein E [apo E],"Km, cholesterol efflux",ABCA1,10.30±2.84 μg/ml and 0.21±0.05 μM
same,"Vmax, cholesterol efflux",ABCA1,11.45±1.16 % efflux/4h
